How the values were obtained:
[1] = biological target: 48d IC as analyte in SPR (non-crosslinked control) (HIV-1 strain BG505, UniProt Q2N0S6); assay: SPR
[2] = biological target: 48d.cl IC as analyte in SPR (Fab-Fab-crosslinked [change]) (HIV-1 strain BG505, UniProt Q2N0S6); assay: SPR

B1: 2mutVRC01 (antibody, V domains shown)
VH: QVQLVQSGGQMKKPGESMRISCRASGYEFIDCTLNWIRLAPGKRPEWMGWLKPRGGAVNYARPLQGRVTMTRDVYSDTAFLELRSLTVDDTAVYFCTRGKNCDYNWDFEHWGRGTPVIVSS
VL: EIVLTQSPGTLSLSPGETAIISCRTSQYGSAALAWYQQRPGQAPRLVIYSGSTRAAGIPDRFSGSRWGPDYNLTISNLESGDFGVYYCQQYEFFGQGTKVQVD
Kd [1]: 0.81 nM
koff [1]: 0.00031 s⁻¹
Kd [2]: 0.52 nM
koff [2]: 0.00012 s⁻¹

Source: publication PMC12846365 (2026)
